Holding throughout (test): SPR; KD of SG1 / KD of variant;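 further: relative to parent M103205H795-SG1 carrying the SG1 human heavy chain constant region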
On the technique in general: SPR reads the build-up and loss of mass on a sensor chip optically.

Assay [1] concerns the target T1, cynomolgus monkey FcγRIIa2 extracellular domain, His-tagged (cynomolgus monkey).
T1 construct: also called cyno FcγRIIa2; cynoFcgRIIa2
T1 chain: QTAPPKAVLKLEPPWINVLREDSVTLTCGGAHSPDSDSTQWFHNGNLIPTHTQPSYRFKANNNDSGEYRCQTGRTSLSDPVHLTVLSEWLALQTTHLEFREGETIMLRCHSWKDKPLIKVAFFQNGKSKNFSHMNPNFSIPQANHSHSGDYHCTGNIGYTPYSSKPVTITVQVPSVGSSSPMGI

Assay [2] deals with T2, human FcγRIIaR extracellular domain, His-tagged (human, UniProt P12318 34-217).
T2 construct: also called human FcγRIIa (type R); FcgRIIaR
T2 chain: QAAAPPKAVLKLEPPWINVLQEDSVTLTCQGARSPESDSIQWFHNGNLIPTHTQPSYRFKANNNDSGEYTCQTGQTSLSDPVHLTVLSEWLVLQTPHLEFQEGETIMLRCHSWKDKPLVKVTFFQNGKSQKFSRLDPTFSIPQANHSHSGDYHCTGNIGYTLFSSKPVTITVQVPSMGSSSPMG

The target of assay [3] is T3, cynomolgus monkey FcγRIIa3 extracellular domain, His-tagged (cynomolgus monkey).
T3 construct: also called cyno FcγRIIa3; cynoFcgRIIa3
T3 chain: T1 chain with K127I, N130K, H133P, Q142R

In assay [4] the target is T4, cynomolgus monkey FcγRIIIaS extracellular domain, His-tagged (cynomolgus monkey, UniProt Q8SPW2 21-206 at identity 1.00)).
T4 construct: also called cyno FcγRIIIaS; cynoFcγRIIIaS
T4 chain: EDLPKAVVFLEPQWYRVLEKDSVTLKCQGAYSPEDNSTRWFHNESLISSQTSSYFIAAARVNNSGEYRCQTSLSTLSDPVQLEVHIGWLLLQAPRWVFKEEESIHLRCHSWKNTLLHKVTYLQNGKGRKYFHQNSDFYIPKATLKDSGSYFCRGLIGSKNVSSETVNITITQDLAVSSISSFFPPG

The target in assay [5] is T5, human FcγRIIIaV extracellular domain, His-tagged (human, UniProt P08637 17-208).
T5 construct: also called FcgRIIIaV

Assay [6] has as its target T6, human FcγRIIb extracellular domain, His-tagged (human, UniProt P31994 43-217).
T6 construct: also called FcgRIIb (human)
T6 sequence: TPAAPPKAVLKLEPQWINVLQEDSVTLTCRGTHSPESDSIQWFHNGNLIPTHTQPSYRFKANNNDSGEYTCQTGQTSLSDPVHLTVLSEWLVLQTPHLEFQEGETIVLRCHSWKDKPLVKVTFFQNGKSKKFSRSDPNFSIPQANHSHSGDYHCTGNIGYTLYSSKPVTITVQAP

For assay [7], the target named is T7, cynomolgus monkey FcγRIIa1 extracellular domain, His-tagged (cynomolgus monkey).
T7 construct: also called cyno FcγRIIa1; cynoFcgRIIa1
T7 chain: T1 chain with T95P, A121T, K127I, S128A, N130K, N135D, Q142R

Assay [8] addresses T8, cynomolgus monkey FcγRIIb extracellular domain, His-tagged (cynomolgus monkey).
T8 construct: also called cyno FcγRIIb; cynoFcγRIIb
T8 chain: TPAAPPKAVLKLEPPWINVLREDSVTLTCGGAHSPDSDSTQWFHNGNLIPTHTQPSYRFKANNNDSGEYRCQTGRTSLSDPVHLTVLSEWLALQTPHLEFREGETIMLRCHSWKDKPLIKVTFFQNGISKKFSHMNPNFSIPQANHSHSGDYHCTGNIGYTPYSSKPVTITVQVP

For assay [9], the target named is T9, human FcγRIIaH extracellular domain, His-tagged (human, UniProt P12318 34-217).
T9 construct: also called human FcγRIIa (type H); FcgRIIaH
T9 sequence: T2 chain with R134H

Numbering of substitutions follows the chain as printed. Names may count otherwise.

T5 sequence (P08637 17-208 F176V): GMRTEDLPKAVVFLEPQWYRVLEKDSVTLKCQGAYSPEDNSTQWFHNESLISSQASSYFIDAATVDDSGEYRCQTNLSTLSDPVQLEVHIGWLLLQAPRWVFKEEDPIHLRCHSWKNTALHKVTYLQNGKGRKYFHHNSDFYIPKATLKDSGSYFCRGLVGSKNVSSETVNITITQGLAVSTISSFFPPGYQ

B1: M103205H795-MY045/M103202L889-SK1 (antibody, human IgG1, kappa)
heavy: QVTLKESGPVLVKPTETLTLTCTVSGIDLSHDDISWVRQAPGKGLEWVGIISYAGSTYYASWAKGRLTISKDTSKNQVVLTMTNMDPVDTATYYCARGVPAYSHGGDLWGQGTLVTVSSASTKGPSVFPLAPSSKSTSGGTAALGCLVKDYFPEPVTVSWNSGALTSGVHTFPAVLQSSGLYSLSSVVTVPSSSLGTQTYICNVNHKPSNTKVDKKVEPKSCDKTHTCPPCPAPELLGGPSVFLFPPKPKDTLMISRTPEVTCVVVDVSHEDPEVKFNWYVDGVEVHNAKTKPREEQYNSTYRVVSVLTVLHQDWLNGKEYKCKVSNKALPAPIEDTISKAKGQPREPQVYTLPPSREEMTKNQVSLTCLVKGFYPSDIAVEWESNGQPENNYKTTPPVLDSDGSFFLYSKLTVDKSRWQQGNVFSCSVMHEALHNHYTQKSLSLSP
light: DIVMTQSPATLSLSPGERATLSCTSSQSVYHANWLSWFQQKPGQPPKLLIYWASTLAYGVPSRFSGSGSGTDFTLTISSLQPEDAATYYCAGGYGGGRYAFGQGTKVEIKRTVAAPSVFIFPPSDEQLKSGTASVVCLLNNFYPREAKVQWKVDNALQSGNSQESVTEQDSKDSTYSLSSTLTLSKADYEKHKVYACEVTHQGLSSPVTKSFNRGEC
notes: Substitution put into M103205H795-SG1
For the molecule B1, the “KD fold (SG1 = 1)” value in [1] worked out at 1.3 fold; in [2], 0.7 fold; in assay [3], 2.5 fold; in assay [4], 2.57 fold; in assay [5] it was 3.38 fold; in assay [6], 1.6 fold. Moreover, the “KD fold (SG1 = 1)” value was found to be 0.6 fold in assay [7], 0.8 fold in assay [8] and 0.4 fold in [9].

B2: M103205H795-MY124/M103202L889-SK1 (antibody, human IgG1, kappa)
heavy: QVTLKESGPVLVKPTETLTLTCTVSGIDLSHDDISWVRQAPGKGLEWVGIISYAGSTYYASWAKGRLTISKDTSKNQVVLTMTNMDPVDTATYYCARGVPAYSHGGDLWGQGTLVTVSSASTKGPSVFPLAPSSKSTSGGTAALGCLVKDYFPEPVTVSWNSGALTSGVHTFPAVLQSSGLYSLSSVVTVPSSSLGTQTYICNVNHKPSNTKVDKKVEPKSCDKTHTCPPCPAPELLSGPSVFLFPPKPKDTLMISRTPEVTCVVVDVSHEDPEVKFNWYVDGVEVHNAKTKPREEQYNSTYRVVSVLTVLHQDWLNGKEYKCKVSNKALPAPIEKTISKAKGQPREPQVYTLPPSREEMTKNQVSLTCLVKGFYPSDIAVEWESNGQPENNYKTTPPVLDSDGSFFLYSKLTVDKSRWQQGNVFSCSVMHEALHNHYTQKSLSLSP
light: B1 light
notes: as for B1
Consider B2, for which the “KD fold (SG1 = 1)” value came out at 1.6 fold in assay [1]; 2.1 fold in [2]; 1.4 fold in assay [3]; 0.28 fold in assay [4]; 0.16 fold in assay [5]; 0.5 fold in assay [6]. The “KD fold (SG1 = 1)” value in assay [7] stood at 1.7 fold; in assay [8], 0.8 fold; in assay [9] it was 4.9 fold.

B3: M103205H795-MY048/M103202L889-SK1 (P271D) (antibody, human IgG1, kappa)
heavy: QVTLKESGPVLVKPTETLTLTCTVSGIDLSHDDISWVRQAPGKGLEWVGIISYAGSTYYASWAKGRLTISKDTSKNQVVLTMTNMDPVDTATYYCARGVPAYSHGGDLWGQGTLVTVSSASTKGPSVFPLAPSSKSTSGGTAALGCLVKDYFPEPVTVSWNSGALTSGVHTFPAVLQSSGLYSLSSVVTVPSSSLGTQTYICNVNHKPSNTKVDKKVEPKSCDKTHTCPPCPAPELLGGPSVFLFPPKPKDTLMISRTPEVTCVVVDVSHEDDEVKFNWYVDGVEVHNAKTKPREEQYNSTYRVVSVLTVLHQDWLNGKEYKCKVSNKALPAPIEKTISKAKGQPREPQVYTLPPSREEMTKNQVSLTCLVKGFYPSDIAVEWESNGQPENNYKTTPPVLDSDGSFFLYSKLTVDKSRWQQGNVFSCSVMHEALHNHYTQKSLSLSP
light: B1 light
notes: Here the P271D molecule is meant; Put into M103205H795-SG1
As for B3, the “KD fold (SG1 = 1)” value in assay [1] came to 0.5 fold; in assay [2], 0.5 fold; in assay [3], 3.5 fold; in assay [4] it was 0.97 fold; in assay [5] it was 1.33 fold; in assay [6] it was 1.5 fold. For the same molecule, the “KD fold (SG1 = 1)” value in assay [7] is 0.6 fold; in assay [8], 0.5 fold; in assay [9], 0.4 fold.

B4: M103205H795-MY065/M103202L889-SK1 (antibody, human IgG1, kappa)
heavy: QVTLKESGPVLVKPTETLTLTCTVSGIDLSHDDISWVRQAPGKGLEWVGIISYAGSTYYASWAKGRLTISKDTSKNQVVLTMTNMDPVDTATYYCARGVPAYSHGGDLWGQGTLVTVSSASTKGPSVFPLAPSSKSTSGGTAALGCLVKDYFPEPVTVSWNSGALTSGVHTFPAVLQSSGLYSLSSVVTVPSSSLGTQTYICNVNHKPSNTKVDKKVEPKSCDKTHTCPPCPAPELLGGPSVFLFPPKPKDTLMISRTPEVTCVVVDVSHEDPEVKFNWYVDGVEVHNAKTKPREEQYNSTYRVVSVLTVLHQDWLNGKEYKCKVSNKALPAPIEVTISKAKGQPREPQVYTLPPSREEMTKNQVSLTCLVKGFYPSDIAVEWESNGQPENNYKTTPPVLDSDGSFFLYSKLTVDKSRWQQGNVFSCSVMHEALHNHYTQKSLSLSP
light: B1 light
notes: as for B1
Consider B4, for which the “KD fold (SG1 = 1)” value in [1] is 1.8 fold; in assay [2], 2.2 fold; in [3], 4 fold; in assay [4] it was 3.27 fold; in [5], 3.52 fold; in [6], 2.4 fold. Moreover, the “KD fold (SG1 = 1)” value in [7] worked out at 1.4 fold; in [8], 1.4 fold; in assay [9] it was 1.3 fold.

B5: M103205H795-MY073/M103202L889-SK1 (antibody, human IgG1, kappa)
heavy: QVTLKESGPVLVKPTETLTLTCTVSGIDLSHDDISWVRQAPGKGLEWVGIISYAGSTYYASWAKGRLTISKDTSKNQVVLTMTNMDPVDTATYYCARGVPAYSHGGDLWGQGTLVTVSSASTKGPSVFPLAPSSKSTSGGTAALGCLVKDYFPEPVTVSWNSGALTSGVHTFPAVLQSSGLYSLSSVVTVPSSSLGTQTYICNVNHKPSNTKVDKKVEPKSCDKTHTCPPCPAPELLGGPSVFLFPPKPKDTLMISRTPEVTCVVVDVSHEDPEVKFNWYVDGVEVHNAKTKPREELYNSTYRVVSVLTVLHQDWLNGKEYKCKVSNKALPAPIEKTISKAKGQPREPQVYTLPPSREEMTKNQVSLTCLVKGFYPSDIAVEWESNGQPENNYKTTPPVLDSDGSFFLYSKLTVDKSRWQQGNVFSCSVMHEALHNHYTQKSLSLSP
light: B1 light
notes: as for B1
Consider B5, for which the “KD fold (SG1 = 1)” value in assay [1] was 8.9 fold; in assay [2] it was 2.2 fold; in [3], 3.3 fold; in [4] it was 2.12 fold; in assay [5], 2.38 fold; in [6], 2.3 fold. For the same molecule, the “KD fold (SG1 = 1)” value worked out at 2.7 fold in assay [7], 2.7 fold in assay [8] and 2.9 fold in assay [9].

B6: M103205H795-MY070/M103202L889-SK1 (antibody, human IgG1, kappa)
heavy: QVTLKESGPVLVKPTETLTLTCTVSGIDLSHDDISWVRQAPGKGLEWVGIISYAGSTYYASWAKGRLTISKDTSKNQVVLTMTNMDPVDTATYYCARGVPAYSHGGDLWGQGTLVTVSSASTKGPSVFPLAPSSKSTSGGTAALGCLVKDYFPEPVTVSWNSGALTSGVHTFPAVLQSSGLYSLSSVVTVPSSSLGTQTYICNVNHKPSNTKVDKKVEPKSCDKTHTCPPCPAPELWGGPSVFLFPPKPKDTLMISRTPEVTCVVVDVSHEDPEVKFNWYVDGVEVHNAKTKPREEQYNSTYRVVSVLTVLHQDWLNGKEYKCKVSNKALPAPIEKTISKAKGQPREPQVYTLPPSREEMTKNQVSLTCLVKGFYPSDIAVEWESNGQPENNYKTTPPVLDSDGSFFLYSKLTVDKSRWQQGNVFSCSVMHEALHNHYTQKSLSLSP
light: B1 light
notes: as for B1
In the case of B6, the “KD fold (SG1 = 1)” value in assay [1] is 1.8 fold; in [2] it was 1.5 fold; in [3], 3.6 fold; in assay [4], 0.73 fold; in assay [5], 1.16 fold; in [6] it was 1.8 fold. Besides, the “KD fold (SG1 = 1)” value worked out at 1.4 fold in assay [7], 1.5 fold in assay [8] and 1.4 fold in assay [9].

B7: M103205H795-MY063/M103202L889-SK1 (antibody, human IgG1, kappa)
heavy: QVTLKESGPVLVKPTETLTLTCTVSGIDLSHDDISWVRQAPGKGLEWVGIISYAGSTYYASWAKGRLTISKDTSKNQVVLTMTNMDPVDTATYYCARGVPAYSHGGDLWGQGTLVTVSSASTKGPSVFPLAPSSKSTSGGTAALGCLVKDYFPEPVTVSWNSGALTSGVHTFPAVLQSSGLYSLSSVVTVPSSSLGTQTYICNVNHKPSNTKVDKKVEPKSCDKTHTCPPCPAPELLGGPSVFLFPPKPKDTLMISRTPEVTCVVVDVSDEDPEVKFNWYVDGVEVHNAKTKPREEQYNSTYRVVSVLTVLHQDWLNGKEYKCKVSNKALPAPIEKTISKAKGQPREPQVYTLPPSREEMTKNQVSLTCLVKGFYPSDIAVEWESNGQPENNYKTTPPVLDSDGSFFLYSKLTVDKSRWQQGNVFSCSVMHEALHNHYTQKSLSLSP
light: B1 light
notes: as for B1
Take B7: the “KD fold (SG1 = 1)” value in assay [1] came to 3.4 fold; in assay [2], 5.2 fold; in assay [3] it was 8.5 fold; in assay [4], 5.37 fold; in assay [5] it was 5.06 fold; in [6] it was 7 fold. The figures for the “KD fold (SG1 = 1)” value in [7], in assay [8] and in [9] were 2.3 fold, 5.3 fold and 2.6 fold, respectively.

B8: M103205H795-MY064/M103202L889-SK1 (antibody, human IgG1, kappa)
heavy: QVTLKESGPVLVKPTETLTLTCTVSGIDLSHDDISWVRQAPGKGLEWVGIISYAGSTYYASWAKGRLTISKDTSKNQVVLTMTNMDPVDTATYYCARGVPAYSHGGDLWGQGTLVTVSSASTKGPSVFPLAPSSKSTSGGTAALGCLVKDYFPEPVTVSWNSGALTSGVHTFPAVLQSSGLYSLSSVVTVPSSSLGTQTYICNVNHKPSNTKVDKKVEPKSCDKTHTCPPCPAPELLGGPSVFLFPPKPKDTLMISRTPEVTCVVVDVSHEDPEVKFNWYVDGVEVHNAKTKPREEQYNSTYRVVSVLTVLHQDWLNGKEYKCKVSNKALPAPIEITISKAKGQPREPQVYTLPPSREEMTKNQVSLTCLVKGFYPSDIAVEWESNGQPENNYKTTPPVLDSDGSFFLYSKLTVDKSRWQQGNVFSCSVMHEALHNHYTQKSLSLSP
light: B1 light
notes: as for B1
For the molecule B8, the “KD fold (SG1 = 1)” value in assay [1] was 2 fold; in assay [2], 1.6 fold; in assay [3] it was 2.5 fold; in [4], 3 fold; in assay [5] it was 3.68 fold; in assay [6] it was 1.9 fold. In addition, the “KD fold (SG1 = 1)” value amounted to 1.3 fold in [7], 1.6 fold in assay [8] and 1.4 fold in assay [9].

B9: M103205H795-MY071/M103202L889-SK1 (antibody, human IgG1, kappa)
heavy: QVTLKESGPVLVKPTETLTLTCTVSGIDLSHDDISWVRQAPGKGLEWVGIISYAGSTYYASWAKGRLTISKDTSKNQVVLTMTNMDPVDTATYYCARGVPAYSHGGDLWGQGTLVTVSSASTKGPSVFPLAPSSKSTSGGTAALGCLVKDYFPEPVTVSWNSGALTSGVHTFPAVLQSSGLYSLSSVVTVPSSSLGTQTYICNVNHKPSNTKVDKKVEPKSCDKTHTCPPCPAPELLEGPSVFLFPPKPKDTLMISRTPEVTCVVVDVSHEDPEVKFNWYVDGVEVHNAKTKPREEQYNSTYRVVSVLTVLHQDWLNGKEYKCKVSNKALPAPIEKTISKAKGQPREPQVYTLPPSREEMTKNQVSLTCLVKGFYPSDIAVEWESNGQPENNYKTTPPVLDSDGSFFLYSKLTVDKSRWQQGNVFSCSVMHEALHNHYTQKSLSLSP
light: B1 light
notes: as for B1
For B9, the “KD fold (SG1 = 1)” value in assay [1] was 1.4 fold; in assay [2] it was 2.4 fold; in assay [3], 1.5 fold; in assay [4], 1.29 fold; in [5], 1.59 fold; in assay [6] it was 1.9 fold. For the same molecule, the “KD fold (SG1 = 1)” value in [7] amounted to 0.6 fold; in assay [8], 0.7 fold; in [9] it was 1.7 fold.

B10: M103205H795-MY068/M103202L889-SK1 (antibody, human IgG1, kappa)
heavy: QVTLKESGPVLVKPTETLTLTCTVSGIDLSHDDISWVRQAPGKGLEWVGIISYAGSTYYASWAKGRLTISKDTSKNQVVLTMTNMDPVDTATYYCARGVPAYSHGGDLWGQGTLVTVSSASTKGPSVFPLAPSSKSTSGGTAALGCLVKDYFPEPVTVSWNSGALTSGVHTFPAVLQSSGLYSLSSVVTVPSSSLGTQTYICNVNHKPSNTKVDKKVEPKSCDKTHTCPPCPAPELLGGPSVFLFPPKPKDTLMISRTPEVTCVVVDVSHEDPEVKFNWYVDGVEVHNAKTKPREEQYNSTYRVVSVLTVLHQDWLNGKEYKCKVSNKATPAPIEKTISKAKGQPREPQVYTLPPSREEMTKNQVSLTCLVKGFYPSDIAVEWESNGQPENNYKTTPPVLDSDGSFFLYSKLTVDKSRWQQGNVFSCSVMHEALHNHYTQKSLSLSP
light: B1 light
notes: as for B1
With B10, the “KD fold (SG1 = 1)” value in [1] came to 1.9 fold; in assay [2], 2.1 fold; in assay [3] it was 3 fold; in [4], 0.67 fold; in [5], 0.58 fold; in [6], 2.7 fold. In addition, the “KD fold (SG1 = 1)” value in [7] was 1.5 fold; in assay [8] it was 1.8 fold; in [9] it was 1.9 fold.

B11: M103205H795-MY069/M103202L889-SK1 (antibody, human IgG1, kappa)
heavy: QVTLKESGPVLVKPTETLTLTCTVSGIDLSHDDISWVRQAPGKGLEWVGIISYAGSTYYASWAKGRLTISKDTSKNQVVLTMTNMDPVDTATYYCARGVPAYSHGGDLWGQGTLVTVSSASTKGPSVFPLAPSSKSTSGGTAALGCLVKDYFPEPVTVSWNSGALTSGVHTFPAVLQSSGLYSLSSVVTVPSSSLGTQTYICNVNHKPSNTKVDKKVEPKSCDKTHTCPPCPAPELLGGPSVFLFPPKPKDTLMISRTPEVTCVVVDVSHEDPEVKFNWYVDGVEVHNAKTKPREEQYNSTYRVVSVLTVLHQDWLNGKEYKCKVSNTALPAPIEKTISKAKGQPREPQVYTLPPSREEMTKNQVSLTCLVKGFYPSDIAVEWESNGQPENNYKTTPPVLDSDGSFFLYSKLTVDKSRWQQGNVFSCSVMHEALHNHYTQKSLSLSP
light: B1 light
notes: as for B1
In the case of B11, the “KD fold (SG1 = 1)” value came to 3.2 fold in assay [1]; 2.8 fold in assay [2]; 2.6 fold in assay [3]; 4.19 fold in [4]; 3.38 fold in assay [5]; 2.9 fold in [6]. For the same molecule, the “KD fold (SG1 = 1)” value came out at 2 fold in assay [7], 2.5 fold in assay [8] and 1.6 fold in assay [9].

B12: M103205H795-MY072/M103202L889-SK1 (antibody, human IgG1, kappa)
heavy: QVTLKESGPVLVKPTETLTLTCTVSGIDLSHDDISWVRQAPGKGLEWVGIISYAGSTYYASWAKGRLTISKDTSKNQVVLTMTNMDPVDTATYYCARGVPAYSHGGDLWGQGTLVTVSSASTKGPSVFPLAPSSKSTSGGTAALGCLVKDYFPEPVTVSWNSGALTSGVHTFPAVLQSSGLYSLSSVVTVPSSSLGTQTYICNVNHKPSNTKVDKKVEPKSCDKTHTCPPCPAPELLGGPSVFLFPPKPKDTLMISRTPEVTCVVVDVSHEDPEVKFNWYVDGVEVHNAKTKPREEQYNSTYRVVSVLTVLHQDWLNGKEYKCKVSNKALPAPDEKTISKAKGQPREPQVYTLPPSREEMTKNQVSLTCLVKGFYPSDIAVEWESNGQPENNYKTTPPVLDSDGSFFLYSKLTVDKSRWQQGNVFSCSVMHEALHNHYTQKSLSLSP
light: B1 light
notes: as for B1
Take B12: the “KD fold (SG1 = 1)” value stood at 4.3 fold in assay [1]; 2.3 fold in assay [2]; 6.5 fold in assay [3]; 6.79 fold in assay [4]; 6.75 fold in [5]; 3.1 fold in assay [6]. Also, the “KD fold (SG1 = 1)” value in [7] came out at 3.2 fold; in [8], 3.8 fold; in assay [9] it was 2.8 fold.

(Values after patent US20200317768A1 (published 2020).)
